Source: patent publication US6489446 (HSC RESEARCH AND DEVELOPMENT LIMITED PARTNERSHIP, dated 2002)
Blank lines part the entries; values can stand above or below the binder they belong to.

How the values were obtained:
[1] = molecular target: T1, matrix of insoluble elastin prepared from chicken aortic tissue (chicken, UniProt P07916 25-750); test: estimate from bound radiolabelled MFU-1, assuming a 6 nm cross-sectional diameter
T1 construct: mature; Insoluble cross-linked tissue matrix, not a defined soluble protein; also called chicken elastin; chicken elastin matrix
T1 sequence (looked up): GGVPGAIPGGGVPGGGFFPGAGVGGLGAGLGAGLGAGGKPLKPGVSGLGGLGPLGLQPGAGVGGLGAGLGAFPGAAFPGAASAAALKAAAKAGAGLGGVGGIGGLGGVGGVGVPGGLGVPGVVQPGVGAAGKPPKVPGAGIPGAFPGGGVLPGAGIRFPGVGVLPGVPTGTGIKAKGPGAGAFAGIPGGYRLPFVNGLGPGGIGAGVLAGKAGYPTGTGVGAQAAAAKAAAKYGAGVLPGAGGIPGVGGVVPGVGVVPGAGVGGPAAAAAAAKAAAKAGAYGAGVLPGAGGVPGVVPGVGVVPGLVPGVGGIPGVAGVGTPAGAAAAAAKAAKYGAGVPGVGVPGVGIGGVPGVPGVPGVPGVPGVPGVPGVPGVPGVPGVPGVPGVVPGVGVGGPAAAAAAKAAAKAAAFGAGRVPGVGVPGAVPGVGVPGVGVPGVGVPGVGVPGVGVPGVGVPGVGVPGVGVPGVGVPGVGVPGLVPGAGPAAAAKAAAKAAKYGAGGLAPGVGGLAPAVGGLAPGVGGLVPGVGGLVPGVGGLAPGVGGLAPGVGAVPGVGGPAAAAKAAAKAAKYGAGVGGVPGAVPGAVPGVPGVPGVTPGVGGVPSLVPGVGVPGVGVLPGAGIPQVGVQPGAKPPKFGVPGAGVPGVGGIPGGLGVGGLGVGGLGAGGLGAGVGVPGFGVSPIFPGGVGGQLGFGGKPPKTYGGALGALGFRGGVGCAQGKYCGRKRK
Method: A matrix of insoluble elastin was prepared from chicken aortic tissue by a cyanogen bromide extraction method. This insoluble, non-human elastin matrix was incubated for 16 hours at 37° in phosphate-buffered saline, at pH 7.4, in the presence of radioactively labeled human MFU-1 prepared as described above. The tissue was then washed extensively with phosphate-buffered saline at pH 7.4.
Estimation of surface coverage assumed a cross-sectional diameter of the human MFU-1 of 6 nm. It was estimated that about 1–3 µg of human MFU-1 per mg chicken elastin matrix remained firmly associated with the insoluble matrix of chicken elastin.

[2] = molecular target: the molecule itself; test: coacervation of MFU-2 in solution; self-association

surface coverage of the chicken elastin matrix [1]: ≤ 200 fold
B1: Minimal Functional Unit-1 (MFU-1) of human elastin (other)
chain: GAGGFPGFGVGVGGIPGVAGVPGVGGVPGVGGVPGVGISPEAQAAAAAKAAKYGVGTPAAAAAKAAAKAAQFGLVPGVGVAPGVGVAPGVGVAPGVGLAPGVGVAPGVGVAPGVGVAPAIGPGGVA
modifications: radioactively labeled valine and glycine (only in the chicken elastin experiments of Example 4)
notes: also called human elastin MFU-1; Fraction 1

B2: MFU-2 of human elastin (other)
chain: FPGFGVGVGGIPGVAGVPGVGGVPGVGGVPGVGISPEAQAAAAAKAAKYGVGTPAAAAAKAAAKAAQFGLVPGVGVAPGVGVAPGVGVAPGVGLAPGVGVAPGVGVAPGVGVAPAIGPEAQAAAAAKAAKYGVGTPAAAAAKAAAKAAQFGLVPGVGVAPGVGVAPGVGVAPGVGLAPGVGVAPGVGVAPGVGVAPAIGP
notes: Tandem duplicate of MFU-1, expressed with techniques similar to those for MFU-1
binding result [2]: binds
